Test results published in paper PMC12723162, “Alphaherpesvirus pUL21 homologs use non-canonical sequences to compete with cellular adaptors for protein phosphatase 1 binding” (The Journal of Biological Chemistry, 2025).
Positions count from the first letter of the chain named.

B1: pUL21ΔL (protein)
chain: MELSYATTMHYRDVVFYVTTDRNRAYFVCGGCVYSVGRPCASQPGEIAKFGLVVRGTGPDDRVVANYVRSELRQRGLQDVRPIGEDEVFLDSVCLLNPNVSSELDVINTNDVEVLDECLAEYCTSLRTSPGVLISGLRVRAQDRIIELFEHPTIVNVSSHFVYTPSPYVFALAQAHLPRLPSSLEALVSGLFDGIPAPRQPLDAHNPRTDVVITGTVSEFVQVKHIDRVGPAGVSPAPPPNNTDSSSLVPGAQDSAPPGPTLRELWWVFYAADRALEEPRADSGLTREEVRAVRGFREQAWKLFGSAGAPRAFIGAALGLSPLQKLAVYYYIIHRERRLSPFPALVRLVGRYTQRHGLYVPRPDDPVLADAINGLFRDALAAGTTAEQLLMFDLLPPKDVPVGSDVQADSTALLRFIESQRLAVPGGVISPEHVAYLGAFLSVLYAGRGRMSAATHTARLTGVTSLVLAVGDVDRLSAFDRGAAGAASRTRAAGYLDVLLTVRLARSQHGQSV
modifications: left off: GFP (from the vector pEGFP-N1), end not stated, kept
B2: pUL21ΔR (protein)
chain: MELSYATTMHYRDVVFYVTTDRNRAYFVCGGCVYSVGRPCASQPGEIAKFGLVVRGTGPDDRVVANYVRSELRQRGLQDVRPIGEDEVFLDSVCLLNPNVSSELDVINTNDVEVLDECLAEYCTSLRTSPGVLISGLRVRAQDRIIELFEHPTIVNVSSHFVYTPSPYVFALAQAHLPRLPSSLEALVSGLFDGIPAPRQPLDAHNPRTDVVITGRRAPRPIAGSGAGSGGAGAKRATVSEFVQVKHIDRVGPAGVSAPPGPTLRELWWVFYAADRALEEPRADSGLTREEVRAVRGFREQAWKLFGSAGAPRAFIGAALGLSPLQKLAVYYYIIHRERRLSPFPALVRLVGRYTQRHGLYVPRPDDPVLADAINGLFRDALAAGTTAEQLLMFDLLPPKDVPVGSDVQADSTALLRFIESQRLAVPGGVISPEHVAYLGAFLSVLYAGRGRMSAATHTARLTGVTSLVLAVGDVDRLSAFDRGAAGAASRTRAAGYLDVLLTVRLARSQHGQSV
modifications: left off: GFP (from the vector pEGFP-N1), end not stated, kept
B3: pUL21ΔLR (protein)
chain: MELSYATTMHYRDVVFYVTTDRNRAYFVCGGCVYSVGRPCASQPGEIAKFGLVVRGTGPDDRVVANYVRSELRQRGLQDVRPIGEDEVFLDSVCLLNPNVSSELDVINTNDVEVLDECLAEYCTSLRTSPGVLISGLRVRAQDRIIELFEHPTIVNVSSHFVYTPSPYVFALAQAHLPRLPSSLEALVSGLFDGIPAPRQPLDAHNPRTDVVITGTVSEFVQVKHIDRVGPAGVSAPPGPTLRELWWVFYAADRALEEPRADSGLTREEVRAVRGFREQAWKLFGSAGAPRAFIGAALGLSPLQKLAVYYYIIHRERRLSPFPALVRLVGRYTQRHGLYVPRPDDPVLADAINGLFRDALAAGTTAEQLLMFDLLPPKDVPVGSDVQADSTALLRFIESQRLAVPGGVISPEHVAYLGAFLSVLYAGRGRMSAATHTARLTGVTSLVLAVGDVDRLSAFDRGAAGAASRTRAAGYLDVLLTVRLARSQHGQSV
modifications: left off: GFP (from the vector pEGFP-N1), end not stated, kept
B4: pUL21-FV242AA (protein)
chain: MELSYATTMHYRDVVFYVTTDRNRAYFVCGGCVYSVGRPCASQPGEIAKFGLVVRGTGPDDRVVANYVRSELRQRGLQDVRPIGEDEVFLDSVCLLNPNVSSELDVINTNDVEVLDECLAEYCTSLRTSPGVLISGLRVRAQDRIIELFEHPTIVNVSSHFVYTPSPYVFALAQAHLPRLPSSLEALVSGLFDGIPAPRQPLDAHNPRTDVVITGRRAPRPIAGSGAGSGGAGAKRATVSEAAQVKHIDRVGPAGVSPAPPPNNTDSSSLVPGAQDSAPPGPTLRELWWVFYAADRALEEPRADSGLTREEVRAVRGFREQAWKLFGSAGAPRAFIGAALGLSPLQKLAVYYYIIHRERRLSPFPALVRLVGRYTQRHGLYVPRPDDPVLADAINGLFRDALAAGTTAEQLLMFDLLPPKDVPVGSDVQADSTALLRFIESQRLAVPGGVISPEHVAYLGAFLSVLYAGRGRMSAATHTARLTGVTSLVLAVGDVDRLSAFDRGAAGAASRTRAAGYLDVLLTVRLARSQHGQSV
modifications: left off: GFP, end not stated, kept
B5: pORF38-GFP (protein)
chain: MEFPYHSTVSYNGVTFYFNERATRAYFICGGCLISIPRKHGGEIAKFGHVVRGVGPGDRSVASYVRSELNRTGKTWAVSSNNNCVFLDRVALLAAGSGAVDRDLCGTFDVEVEDPTLADYLVSLPVTHLTLVAGVDVTRENKLKLFPTPTAINTTNGFMYVPNEASFSLVYMRMLELPESLQELVSGLFDGTPEIRDALNGSNDDEKTSIIVSRRAADVVTEDVKADDVPISGEPYSEKQPRRRKKSDHITLSNFVQIRTIPRVMDIWDPRHKATTHCIRALSCAVFFADEVIFKARKWPGLEDELNEARETIYTAVVAVYGERGELPFFGHAYGRDLTSCQRFVIVQYILSRWEAFNCYAVIEDLTRSYVNALPSDDDTDQVAQDLIRTIVDTANSLLREVGFIGTLAETLLFLPLPQLPCYKETSHLAKKEGVRILRLAKTGVGLSDTVPVDVSVTERHEYEISRYLDTLYSGDPCYNGAVRLCRLLGSSIPIALYYNTISGNAFEPYFAGRRYIAYLGALFFGRVHQTPFGDGKKTQR
modifications: left off: GFP, end not stated, kept
B6: pORF38-FV255AA (protein)
chain: B5 chain with F255A, V256A
modifications: left off: GFP, end not stated, kept

System: endogenous PP1α
Test: GFP affinity capture / co-IP of endogenous PP1α with GFP-tagged bait
Assay type: binding, human
Conditions: HEK 293T cells, 24 h post-transfection, GFP-Trap, immunoblot, representative of two independent experiments
Text: Bacterial expression plasmids encoding the mouse PP1γ catalytic domain (residues 7–300)-H6 and pUL21-H6, and mammalian expression vectors encoding pUL21(FV242AA)-GFP, pORF38-GFP and pORF38(FV255AA)-GFP, were described previously ([23]). We note that the mouse and human PP1γ catalytic domains share 100% amino acid identity. pORF38-NLT-H6 was generated by sub-cloning residues 1 to 263 of ORF38 into the vector pOPTnH ([52]). pUL21-RVxF-H6 was generated by inserting the mutations A237V and V239F into pUL21-H6 by QuikChange site-directed mutagenesis. Human PP1α was cloned from HeLa cell cDNA into a vector derived from pF5K (Promega) with an N-terminal Myc epitope tag via restriction-based cloning, and point mutations were introduced into Myc-PP1α by QuikChange mutagenesis. A plasmid encoding pUL21-GFP was generated by sub-cloning a codon-optimized synthetic UL21 gene (GeneArt) into pEGFP-N1 (Clontech), yielding an identical pUL21-GFP amino acid sequence as used in ([23]). pUL21-ΔL, -ΔR and -ΔLR were generated from this vector via inverse PCR, and point mutations were introduced via QuikChange mutagenesis.
Mycoplasma-free human embryonic kidney 293T (HEK 293T) cells (American Type Culture Collection #CRL-3216) were maintained in Dulbecco’s modified Eagle’s medium (DMEM) with high glucose (Merck), supplemented with 10% (v/v) heat-inactivated fetal calf serum and 2 mM L-glutamine (complete DMEM) in a humidified 5% CO2 atmosphere at 37 °C. The identity of the cell line was not independently confirmed.
Monolayers of HEK 293T cells were transfected with 7.7 μg of DNA per 9 cm dish, using 18 μg/ml 25 kDa branched polyethylenimine (Merck) or using TransIt-LT1 (Mirus) in accordance with the manufacturer’s instructions. Cells were harvested 24 h post-transfection and incubated for 30 min in ice-cold 10 mM Tris pH 7.5, 150 mM NaCl, 0.5 mM EDTA, 0.5% Igepal CA-630 (a.k.a. NP-40), 1% (v/v) EDTA-free protease inhibitor cocktail (Merck) before clarification at 21,000×g for 10 min at 4 °C. Lysate protein concentrations were measured using the bicinchoninic acid (BCA) assay (Pierce) and normalized before affinity capture using GFP-Trap resin (ChromoTek) following the manufacturer’s protocol. Samples were eluted by heating the resin to 95 °C for 5 min in 45 μl 2 × SDS-PAGE loading buffer. Proteins were separated by SDS-PAGE and transferred to 0.45 μm nitrocellulose membranes (PerkinElmer or Cytiva). Membranes were stained with Ponceau S and imaged using a G:Box XX9 (Syngene) before blocking in Tris-buffered saline with 0.1% TWEEN-20 (TBS-T) supplemented with 5% (w/v) non-fat milk powder. Immunoblotting was performed using antibodies diluted in blocking buffer as listed below, and immunoblots were imaged using an Odyssey CLx (LI-COR Biosciences). Densitometry was performed using Image Studio Lite version 5.2 (LI-COR Biosciences), and statistical tests were performed using Prism version 7 (GraphPad).
The following primary antibodies and dilutions were used for immunoblotting: rabbit anti-CERT 1:10,000 (Abcam #Ab72536), mouse anti-PP1α 1:1000 (Santa Cruz #sc-271762), mouse anti-Myc 1:4000 (Millipore #05–724), rat anti-tubulin (clone YL1/2) hybridoma supernatant 1:40 ([54]). The anti-CERT antibody was validated using a knock-out cell line. The anti-PP1α antibody has been validated by siRNA knockdown ([55]). The anti-Myc antibody was validated using control experiments lacking Myc-tagged transfected constructs ([56]). The anti-tubulin antibody has been validated by immunofluorescence microscopy, immuno-electron microscopy and radiolabeled immunosorbent assay ([54]). Secondary antibodies from LI-COR Biosciences were diluted 1:10,000 as follows: IRDye 680RD goat anti-rat (#926–68029) and goat anti-mouse (#926–68020), or IRDye 800CW goat anti-rabbit (#926–32221).

Molecule	Co-IP of endogenous PP1α	Co-IP of endogenous PP1α (listed as FV242AA)	Co-IP of endogenous PP1α (listed as pORF38)	Co-IP of endogenous PP1α (listed as FV255AA)
B1	completely abolishes PP1α binding			
B2	binding is retained			
B3	completely abolishes PP1α binding			
B4	the interaction is disrupted by mutation of the TROPPO motif	PP1α coIP was abolished		
B5	consistently co-immunoprecipitated more efficiently by pORF38-GFP than by pUL21-GFP		efficiently precipitate endogenous PP1α	
B6	the interaction is disrupted by mutation of the TROPPO motif			abolished binding to PP1
